Measured values taken from article PMC10397247.

What was measured:
Assay in all cases: two-hybrid library CCmax;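 also: natural log of median RNA to DNA barcode read ratio; higher means stronger binding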
APC6088-AA = target: T1, APC6088-AA
T1 chain: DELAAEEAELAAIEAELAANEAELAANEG

APC7524-AA = target: T2, APC7524-AA; settings: mean of both orientations
T2 chain: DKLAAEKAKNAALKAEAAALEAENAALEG

APC8401-AA = target: T3, APC8401-AA; settings: mean of both orientations
T3 chain: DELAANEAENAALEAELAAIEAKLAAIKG

APC8516-AA = target: T4, APC8516-AA; settings: mean of both orientations
T4 chain: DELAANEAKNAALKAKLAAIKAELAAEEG

APC9141-AA = target: T5, APC9141-AA; settings: mean of both orientations
T5 chain: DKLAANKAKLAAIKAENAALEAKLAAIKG

APC9182-AA = target: T6, APC9182-AA; settings: mean of both orientations
T6 chain: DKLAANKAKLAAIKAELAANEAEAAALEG

APC9291-AA = target: T7, APC9291-AA; settings: mean of both orientations
T7 chain: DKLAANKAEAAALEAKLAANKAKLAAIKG

APC9806-AA = target: T8, APC9806-AA; settings: mean of both orientations
T8 chain: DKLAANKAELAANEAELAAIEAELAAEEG

4H3446-AA = target: T9, 4H3446-AA
T9 chain: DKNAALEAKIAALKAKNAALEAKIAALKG

4H3591-AA = target: T10, 4H3591-AA; settings: mean of both orientations
T10 chain: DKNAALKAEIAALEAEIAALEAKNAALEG

4H3628-AA = target: T11, 4H3628-AA; settings: mean of both orientations
T11 chain: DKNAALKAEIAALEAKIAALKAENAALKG

4H3666-AA = target: T12, 4H3666-AA; settings: mean of both orientations
T12 chain: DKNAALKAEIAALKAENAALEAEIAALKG

4H3709-AA = target: T13, 4H3709-AA; settings: mean of both orientations
T13 chain: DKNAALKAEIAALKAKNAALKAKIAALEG

4H391-AA = target: T14, 4H391-AA; settings: mean of both orientations
T14 chain: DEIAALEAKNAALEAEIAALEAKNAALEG

4H3920-AA = target: T15, 4H3920-AA; settings: mean of both orientations
T15 chain: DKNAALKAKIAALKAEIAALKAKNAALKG

4H3939-AA = target: T16, 4H3939-AA; settings: mean of both orientations
T16 chain: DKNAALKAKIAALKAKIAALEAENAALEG

4H428-AA = target: T17, 4H428-AA; settings: mean of both orientations
T17 chain: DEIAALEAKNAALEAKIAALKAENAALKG

4H478-AA = target: T18, 4H478-AA; settings: mean of both orientations
T18 chain: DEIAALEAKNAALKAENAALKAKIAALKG

4H497-AA = target: T19, 4H497-AA; settings: mean of both orientations
T19 chain: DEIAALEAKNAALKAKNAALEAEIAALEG

4H656-AA = target: T20, 4H656-AA; settings: mean of both orientations
T20 chain: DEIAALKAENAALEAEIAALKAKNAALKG

4H675-AA = target: T21, 4H675-AA; settings: mean of both orientations
T21 chain: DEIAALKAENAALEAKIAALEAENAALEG

4H971-AA = target: T22, 4H971-AA; settings: mean of both orientations
T22 chain: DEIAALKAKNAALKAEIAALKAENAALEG

4H2642-AA = target: T23, 4H2642-AA
T23 chain: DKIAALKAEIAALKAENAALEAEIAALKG

4H2729-AA = target: T24, 4H2729-AA; settings: mean of both orientations
T24 chain: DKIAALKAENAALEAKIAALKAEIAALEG

4H2754-AA = target: T25, 4H2754-AA; settings: mean of both orientations
T25 chain: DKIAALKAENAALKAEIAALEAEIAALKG

4H2837-AA = target: T26, 4H2837-AA; settings: mean of both orientations
T26 chain: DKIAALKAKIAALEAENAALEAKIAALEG

4H2883-AA = target: T27, 4H2883-AA; settings: mean of both orientations
T27 chain: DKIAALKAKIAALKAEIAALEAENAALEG

4H2944-AA = target: T28, 4H2944-AA; settings: mean of both orientations
T28 chain: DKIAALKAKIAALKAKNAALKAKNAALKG

4H2949-AA = target: T29, 4H2949-AA; settings: mean of both orientations
T29 chain: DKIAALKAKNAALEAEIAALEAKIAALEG

4H3112-AA = target: T30, 4H3112-AA; settings: mean of both orientations
T30 chain: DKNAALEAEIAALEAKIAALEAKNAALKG

4H317-AA = target: T31, 4H317-AA; settings: mean of both orientations
T31 chain: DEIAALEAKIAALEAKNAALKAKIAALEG

4H3343-AA = target: T32, 4H3343-AA; settings: mean of both orientations
T32 chain: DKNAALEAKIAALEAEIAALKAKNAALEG

4H335-AA = target: T33, 4H335-AA; settings: mean of both orientations
T33 chain: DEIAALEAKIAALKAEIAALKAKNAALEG

4H342-AA = target: T34, 4H342-AA; settings: mean of both orientations
T34 chain: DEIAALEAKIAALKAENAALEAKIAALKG

4H3427-AA = target: T35, 4H3427-AA; settings: mean of both orientations
T35 chain: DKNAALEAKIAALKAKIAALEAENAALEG

4H3606-AA = target: T36, 4H3606-AA; settings: mean of both orientations
T36 chain: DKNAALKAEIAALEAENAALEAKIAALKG

4H3627-AA = target: T37, 4H3627-AA; settings: mean of both orientations
T37 chain: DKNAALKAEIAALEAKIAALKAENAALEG

4H3655-AA = target: T38, 4H3655-AA; settings: mean of both orientations
T38 chain: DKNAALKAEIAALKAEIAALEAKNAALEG

4H3844-AA = target: T39, 4H3844-AA; settings: mean of both orientations
T39 chain: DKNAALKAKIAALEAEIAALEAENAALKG

4H3921-AA = target: T40, 4H3921-AA; settings: mean of both orientations
T40 chain: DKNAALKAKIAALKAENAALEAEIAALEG

4H429-AA = target: T41, 4H429-AA; settings: mean of both orientations
T41 chain: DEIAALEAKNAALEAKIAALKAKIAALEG

4H454-AA = target: T42, 4H454-AA; settings: mean of both orientations
T42 chain: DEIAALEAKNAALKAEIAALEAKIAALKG

4H48-AA = target: T43, 4H48-AA; settings: mean of both orientations
T43 chain: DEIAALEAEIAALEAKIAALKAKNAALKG

4H566-AA = target: T44, 4H566-AA; settings: mean of both orientations
T44 chain: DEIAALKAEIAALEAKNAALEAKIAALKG

4H605-AA = target: T45, 4H605-AA; settings: mean of both orientations
T45 chain: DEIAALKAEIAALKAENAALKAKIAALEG

4H678-AA = target: T46, 4H678-AA; settings: mean of both orientations
T46 chain: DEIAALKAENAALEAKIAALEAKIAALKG

4H717-AA = target: T47, 4H717-AA; settings: mean of both orientations
T47 chain: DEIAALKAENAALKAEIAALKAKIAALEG

4H780-AA = target: T48, 4H780-AA; settings: mean of both orientations
T48 chain: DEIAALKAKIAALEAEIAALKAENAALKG

4H794-AA = target: T49, 4H794-AA; settings: mean of both orientations
T49 chain: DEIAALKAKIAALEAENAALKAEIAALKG

4H881-AA = target: T50, 4H881-AA; settings: mean of both orientations
T50 chain: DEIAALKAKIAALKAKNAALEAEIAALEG

4H906-AA = target: T51, 4H906-AA; settings: mean of both orientations
T51 chain: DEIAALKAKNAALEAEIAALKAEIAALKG

4H993-AA = target: T52, 4H993-AA; settings: mean of both orientations
T52 chain: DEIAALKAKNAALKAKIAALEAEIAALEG

## DELAAEEAELAAIEAELAANEAELAANEG [APC6088-AA]
APC6088-AA
  interaction score: -1.3
APC7524-AA
  interaction score: -1.52
APC8401-AA
  interaction score: -1.56
APC8516-AA
  interaction score: -2.19
APC9141-AA
  interaction score: -1.67
APC9182-AA
  interaction score: -1.84
APC9291-AA
  interaction score: -1.58
APC9806-AA
  interaction score: -1.36

## DKNAALEAKIAALKAKNAALEAKIAALKG [4H3446-AA]
4H3446-AA
  interaction score: -0.619
4H3591-AA
  interaction score: -0.816
4H3628-AA
  interaction score: -1.96
4H3666-AA
  interaction score: 0.18
4H3709-AA
  interaction score: -0.0647
4H391-AA
  interaction score: 0.726
4H3920-AA
  interaction score: -1.52
4H3939-AA
  interaction score: -1.83
4H428-AA
  interaction score: -0.892
4H478-AA
  interaction score: -1.66
4H497-AA
  interaction score: -1.57
4H656-AA
  interaction score: -0.701
4H675-AA
  interaction score: -0.821
4H971-AA
  interaction score: -1.14

## DKIAALKAEIAALKAENAALEAEIAALKG [4H2642-AA]
4H2642-AA
  interaction score: 2.07
4H2729-AA
  interaction score: -0.868
4H2754-AA
  interaction score: -1.08
4H2837-AA
  interaction score: -1
4H2883-AA
  interaction score: -0.642
4H2944-AA
  interaction score: 0.299
4H2949-AA
  interaction score: -0.263
4H3112-AA
  interaction score: -1.11
4H317-AA
  interaction score: 1.06
4H3343-AA
  interaction score: -1.7
4H335-AA
  interaction score: -1.02
4H342-AA
  interaction score: 1.85
4H3427-AA
  interaction score: -1.25
4H3606-AA
  interaction score: -0.298
4H3627-AA
  interaction score: -1.58
4H3655-AA
  interaction score: -1.24
4H3844-AA
  interaction score: -1.28
4H3921-AA
  interaction score: -1.11
4H429-AA
  interaction score: -0.542
4H454-AA
  interaction score: 0.982
4H48-AA
  interaction score: -0.661
4H566-AA
  interaction score: 1.3
4H605-AA
  interaction score: 1.36
4H678-AA
  interaction score: -1.06
4H717-AA
  interaction score: -1.13
4H780-AA
  interaction score: -1.24
4H794-AA
  interaction score: 0.96
4H881-AA
  interaction score: 0.64
4H906-AA
  interaction score: -1.72
4H993-AA
  interaction score: 1.73
